# Laboratory results as given in patent publication US11882829B2, “Fusion proteins and methods for stimulating plant growth, protecting plants, and immobilizing bacillus spores on plants” (Spogen Biotech Inc., priority 2013, dated 2024).
# Test system: Corn
# Assay: Corn growth after BEMD PhoA4 spores with or without polyphosphate (Example 11)
# Assay type: in vivo
# Conditions: Additive: Polyphosphate 0.5 mg/pot; corn height at two weeks
row,Molecule,"Growth, Comparison to Water [%]"
1,Polyphosphate,110.8

# Test system: corn plants at the V5 stage
# Assay: Foliar application to corn under heat and water stress (Example 38)
# Assay type: in vivo
# Conditions: not given
row,Molecule,effect on growth of stressed corn
1,O=C(O)c1ccccc1O [Salicylic Acid],positive responses
2,"c1ccc2snnc2c1 [Benzothiadiazole (BTH), Benzothiadiazole]",positive responses

# Same assay, conditions: foliar spray 1 ml/plant; 32.2° C., watering once per week; compared to water-only control
row,Molecule,Change in plant Height over 2 week stress [%]
1,O=C(O)c1ccccc1O [Salicylic Acid],5.8
2,"c1ccc2snnc2c1 [Benzothiadiazole (BTH), Benzothiadiazole]",7.3

# Test system: sigma K driven genes in Bacillus cereus family members
# Assay: not given
# Conditions: microarray data from Bergman et al., 2008; late sporulation, 300 minutes; cited from earlier work
row,Molecule,Relative Expression (Fold increase in mRNA) [Fold]
1,"Sigma K (SEQ ID NO: 99) (nucleic acid, listed as Bacillus anthracis) DNA: TATATCATATGTAAAATTAGTTCTTATTCCCACATATCATATAGAATCGCCATATTATACATGCAGAAAACTAAGTATGGTATTATTCTTAAATTGTTTAGCACCTTCTAATATTACAGATAGAATCCGTCATTTTCAACAGTGAACATGGATTTCTTCTGAACACAACTCTTTTTCTTTCCTTATTTCCAAAAAGAAAAGCAGCCCATTTTAAAATACGGCTGCTTGTAATGTACATTA",64
2,"ExsY (SEQ ID NO: 91): ExsY promoter (B. thuringiensis serovar konkukian str. 97-27) (nucleic acid, listed as Bacillus thuringiensis, expressed or natural sequence) DNA: TAATTCCACCTTCCCTTATCCTCTTTCGCCTATTTAAAAAAAGGTCTTGAGATTGTGACCAAATCTCCTCAACTCCAATATCTTATTAATGTAAATACAAACAAGAAGATAAGGAGTGACATTAA",32.49
3,"BxpB/ExsFA (SEQ ID NO: 95): BxpB promoter (B. thuringiensis Al Hakam) (nucleic acid, listed as Bacillus thuringiensis) DNA: AAACTAAATAATGAGCTAAGCATGGATTGGGTGGCAGAATTATCTGCCACCCAATCCATGCTTAACGAGTATTATTATGTAAATTTCTTAAAATTGGGAACTTGTCTAGAACATAGAACCTGTCCTTTTCATTAACTGAAAGTAGAAACAGATAAAGGAGTGAAAAACA",30.25
4,"BclA adjacent US Glycosyl transferase promoter 1 (SEQ ID NO: 101): BclA cluster glycosyl transferase operon 1 promoter (nucleic acid, listed as Bacillus thuringiensis, expressed or natural sequence, BclA cluster glycosyl transferase operon 1 promoter) DNA: ATTTTTTACTTAGCAGTAAAACTGATATCAGTTTTACTGCTTTTTCATTTTTAAATTCAATCATTAAATCTTCCTTTTCTACATAGTCATAATGTTGTATGACATTCCGTAGGAGGCACTTATA",72.25
5,"BclA (SEQ ID NO: 85) (nucleic acid, listed as Bacillus anthracis) DNA: TAATCACCCTCTTCCAAATCAATCATATGTTATACATATACTAAACTTTCCATTTTTTTAAATTGTTCAAGTAGTTTAAGATTTCTTTTCAATAATTCAAATGTCCGTGTCATTTTCTTTCGGTTTTGCATCTACTATATAATGAACGCTTTATGGAGGTGAATTTATG",77.44
6,"Rhamnose Promoters (SEQ ID NO: 96): Rhamnose promoter (B. thuringiensis Al Hakam) (nucleic acid, listed as Bacillus thuringiensis, expressed or natural sequence) DNA: ATTCACTACAACGGGGATGAGTTTGATGCGGATACATATGAGAAGTACCGGAAAGTGTTTGTAGAACATTACAAAGATATATTATCTCCATCATAAAGGAGAGATGCAAAG",75.69
7,"YjcA (SEQ ID NO: 93): YjcA promoter (B. thuringiensis serovar kurstaki str. HD73) (nucleic acid, listed as Bacillus thuringiensis, expressed or natural sequence) DNA: TTAATGTCACTCCTTATCTTCTTGTTTGTATTTACATTAATAAGATATTGGAGTTGAGGAGATTTGGTCACAATCTCAAGACCTTTTTTTTAAATAGGCGAAAGAGGATAAGGGAAGGTGGAATTA",64
8,"CotY (SEQ ID NO: 97) (nucleic acid, listed as Bacillus anthracis) DNA: CGCGCACCACTTCGTCGTACAACAACGCAAGAAGAAGTTGGGGATACAGCAGTATTCTTATTCAGTGATTTAGCACGCGGCGTAACAGGAGAAAACATTCACGTTGATTCAGGGTATCATATCTTAGGATAAATATAATATTAATTTTAAAGGACAATCTCTACATGTTGAGATTGTCCTTTTTATTTGTTCTTAGAAAGAACGATTTTTAACGAAAGTTCTTACCACGTTATGAATATAAGTATAATAGTACACGATTTATTCAGCTACGTA",79.21
9,"BclA adjacent DS Glycosyl transferase promoter 2 (SEQ ID NO: 102): BclA cluster glycosyl transferase operon 2 promoter (nucleic acid, listed as Bacillus thuringiensis) DNA: ACATAAATTCACCTCCATAAAGCGTTCATTATATAGTAGATGCAAAACCGAAAGAAAATGACACGGACATTTGAATTATTGAAAAGAAATCTTAAACTACTTGAACAATTTAAAAAAATGGAAAGTTTAGTATATGTATAACATATGATTGATTTGGAAGAGGGTGATTA",73.96
10,"YjcB (SEQ ID NO: 94): YjcB promoter (B. thuringiensis serovar kurstaki str. HD73) (nucleic acid, listed as Bacillus thuringiensis, expressed or natural sequence) DNA: ATATATTTTCATAATACGAGAAAAAGCGGAGTTTAAAAGAATGAGGGAACGGAAATAAAGAGTTGTTCATATAGTAAATAGACAGAATTGACAGTAGAGGAGA",70.56
11,"InhA (SEQ ID NO: 100): InhA promoter (B. thuringiensis Al Hakam) (nucleic acid, listed as Bacillus thuringiensis) DNA: TATCACATAACTCTTTATTTTTAATATTTCGACATAAAGTGAAACTTTAATCAGTGGGGGCTTTGTTCATCCCCCCACTGATTATTAATTGAACCAAGGGATAAAAAGATAGAGGGTCTGACCAGAAAACTGGAGGGCATGATTCTATAACAAAAAGCTTAATGTTTATAGAATTATGTCTTTTTATATAGGGAGGGTAGTAAACAGAGATTTGGACAAAAATGCACCGATTTATCTGAATTTTAAGTTTTATAAAGGGGAGAAATG",34.25
12,"BclC (SEQ ID NO: 98) (nucleic acid, listed as Bacillus anthracis) DNA: TGAAGTATCTAGAGCTAATTTACGCAAAGGAATCTCAGGACAACACTTTCGCAACACCTATATTTTAAATTTAATAAAAAAAGAGACTCCGGAGTCAGAAATTATAAAGCTAGCTGGGTTCAAATCAAAAATTTCACTAAAACGATATTATCAATACGCAGAAAATGGAAAAAACGCCTTATCATAAGGCGTTTTTTCCATTTTTTCTTCAAACAAACGATTTTACTATGACCATTTAACTAATTTTTGCATCTACTATGATGAGTTTCATTCACATTCTCATTAGAAAGGAGAGATTTAATG",14.44
